Data on two molecules can be found in article PMC9951844 (2023).

Assay [1] deals with T1, SARS-CoV-2 wildtype RBD (SARS-CoV-2, UniProt P0DTC2 332-527). Description: BLI.
For assay [2], the target named is T1, SARS-CoV-2 wildtype RBD. In words: BLI. The source holds these as a separate data set. On the technique in general: Biolayer interferometry detects binding as a change in optical thickness at a sensor tip.

B1: YB13-292 IgG (antibody, V domains shown)
VH: EVQLVESGGGLVKPGGSLRLSCAASGFSFITYNMNWVRQAPGKGLEWVSSISSNILSSTSYIYYADSVKGRFTISRDDAANSLFLQMNSLRVEDTAQYYCARTRSRSVRNCTSATCPVDAFDLWGQGTMVIVSS
VL: DIVLTQSPLSLPVTPGEPASISCRSSQSLLRSNGYNYLDWYLQKPGQSPHLLIYLGSNRASGVPDRFSGSGSGTDFTLKISRVEAEDVGVYYCMQALQTPYTFGQGTNLEIK
In general, Kd refers to the free concentration of one partner at which half of the binding sites on the other are occupied at equilibrium, for simple one-to-one binding. For orientation: koff means the rate constant with which the complex falls apart. On to B1, for which the equilibrium dissociation constant (Kd) in assay [1] came to 0.39 nM. Moreover, in assay [2], the koff came out at 0.000197 s⁻¹.

B2: YB9-258 IgG (antibody, V domains shown)
VH: EVQLVESGGGLIQPGGSLRLSCAASGLTVSSNYMHWVRQAPGKGLEWVSVLYAGGSAFYADSVKGRFTISRNNSKNTLYLQMNSLRAEDTAIYYCARGLGDYLDSWGQGTLVTVSS
VL: DIQMTQSPSSVSASVGDRVTITCRASQGIGSWLAWYQQKPGKAPQLLIYAASTLQSGVPPRFSGSGSGTDFTLTITSLQPEDFASYYCQQANSVLALTFGGGTKVEIK
In assay [1], B2 came in with a Kd of 0.63 nM. The molecule further registered a koff in assay [2] of 7.7e-05 s⁻¹.
